Data taken from patent publication US20100184088A1 (ONCOTHERAPY SCIENCE, published 2010).

B1: Flag-tagged SMYD3-delta 3 (codons 250-428) (enzyme)
chain: RKQLRDQYCFECDCFRCQTQDKDADMLTGDEQVWKEVQESLKKIEELKAHWKWEQVLAMCQAIISSNSERLPDINIYQLKVLDCAMDACINLGLLEEALFYGTRTMEPYRIFFPGSHPVRGVQVMKVGKLQLHQGMFPQAMKNLRLAFDIMRVTHGREHSLIEDLILLLEECDANIRAS
notes: Deleted form of SMYD3 lacking the SET domain; also called flag-SMYD3-D3; not shown: Flag tag
B2: Flag-tagged wild-type SMYD3 (p3XFLAG-CMV-SMYD3) (protein)
chain: MEPLKVEKFATANRGNGLRAVTPLRPGELLFRSDPLAYTVCKGSRGVVCDRCLLGKEKLMRCSQCRVAKYCSAKCQKKAWPDHKRECKCLKSCKPRYPPDSVRLLGRVVFKLMDGAPSESEKLYSFYDLESNINKLTEDKKEGLRQLVMTFQHFMREEIQDASQLPPAFDLFEAFAKVICNSFTICNAEMQEVGVGLYPSISLLNHSCDPNCSIVFNGPHLLLRAVRDIEVGEELTICYLDMLMTSEERRKQLRDQYCFECDCFRCQTQDKDADMLTGDEQVWKEVQESLKKIEELKAHWKWEQVLAMCQAIISSNSERLPDINIYQLKVLDCAMDACINLGLLEEALFYGTRTMEPYRIFFPGSHPVRGVQVMKVGKLQLHQGMFPQAMKNLRLAFDIMRVTHGREHSLIEDLILLLEECDANIRAS
B3: Flag-tagged VEGFR1#2 (codons 1000-1200) (receptor)
chain: ISYSFQVARGMEFLSSRKCIHRDLAARNILLSENNVVKICDFGLARDIYKNPDYVRKGDTRLPLKWMAPESIFDKIYSTKSDVWSYGVLLWEIFSLGGSPYPGVQMDEDFCSRLREGMRMRAPEYSTPEIYQIMLDCWHRDPKERPRFAELVEKLGDLLQANVQQDGKDYIPINAILTGNSGFTYSTPAFSEDFFKESISA
notes: Cytoplasmic fragment of VEGFR1 expressed in HEK293 cells; also called flag-VEGFR1#2; not shown: Flag tag (3xFlag vector)
B4: Flag-tagged VEGFR1#3 (codons 1200-1338) (receptor)
chain: APKFNSGSSDDVRYVNAFKFMSLERIKTFEELLPNATSMFDDYQGDSSTLLASPMLKRFTWTDSKPKASLKIDLRVTSKSKESGLSDVSRPSFCHSSCGHVSEGKRRFTYDHAELERKIACCSPPPDYNSVVLYSTPPI
notes: Cytoplasmic fragment of VEGFR1 expressed in HEK293 cells; also called flag-VEGFR1#3; not shown: Flag tag (3xFlag vector)

Columns and labels:
HA-tagged VEGFR1 = target: T1, HA-tagged VEGFR1 (human, UniProt P17948 800-1338, limits assumed); assay: co-immunoprecipitation (anti-HA or anti-Flag IP, western blot), HEK293 cells
T1 construct: also called HA-VEGFR1; cytoplasmic domain of VEGFR1; not shown: HA tag (pCMV-HA vector)
T1 sequence: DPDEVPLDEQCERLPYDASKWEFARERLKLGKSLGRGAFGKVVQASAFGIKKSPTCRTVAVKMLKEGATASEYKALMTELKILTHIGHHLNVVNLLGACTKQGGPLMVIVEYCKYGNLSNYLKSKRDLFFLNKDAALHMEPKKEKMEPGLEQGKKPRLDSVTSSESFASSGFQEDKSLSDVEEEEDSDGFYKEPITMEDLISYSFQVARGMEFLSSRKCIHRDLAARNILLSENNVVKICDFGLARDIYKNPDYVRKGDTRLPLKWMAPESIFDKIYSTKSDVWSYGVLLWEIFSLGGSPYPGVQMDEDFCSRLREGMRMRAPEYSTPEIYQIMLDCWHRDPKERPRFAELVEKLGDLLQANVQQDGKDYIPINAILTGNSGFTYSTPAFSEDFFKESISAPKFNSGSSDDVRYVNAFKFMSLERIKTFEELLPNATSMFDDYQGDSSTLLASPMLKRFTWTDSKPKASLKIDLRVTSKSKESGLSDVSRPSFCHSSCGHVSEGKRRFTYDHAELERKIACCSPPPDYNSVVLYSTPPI
Excerpt: FIG. 3 depicts the interaction between SMYD3 and VEGFR1. Part a depicts the interaction between SMYD3 and VEGFR1, examined by a co-immunoprecipitation assay using extract from HEK293 cells expressing HA-tagged SMYD3 and different regions of Flag-tagged VEGFR1 (VEGFR1#1, #2, and #3). Part b depicts the interaction of endogenous SMYD3 with VEGFR1. Whole cell extracts from SNU423, SW480, and MCF7 cells expressing both SMYD3 and VEGFR1 were precipitated with anti-SMYD3 antibody. The precipitants were immunoblotted with anti-VEGFR-1 antibody (upper panel) or anti-SMYD3 antibody (lower panel). Part c depicts the association of VEGFR1 with the SET domain of SMYD3. Wild type or deleted forms of Flag-tagged SMYD3 (N-20, delta 2, or delta 3) were co-expressed with HA-tagged VEGFR1 in HEK293 cells. IP was performed with either anti-HA or anti-Flag antibody, and the precipitants were analyzed by western blot analysis with anti-Flag (upper panel) or anti-HA (lower panel) antibody. Part d depicts the interaction of the cytoplasmic region of VEGFR1 with the SET domain of SMYD3 in vivo. Flag-tagged wild type or the SET domain of SMYD3 was co-expressed with HA-tagged VEGFR1 in HEK293 cells. Extracts from the cells were precipitated with anti-Flag (upper panel) or anti-HA (lower panel) antibodies, and the precipitants were analyzed by western blot analysis with anti-HA antibody. […]

[1] = target: T2, recombinant GST-fused VEGFR1#1 (codons 800-1000)
T2 chain: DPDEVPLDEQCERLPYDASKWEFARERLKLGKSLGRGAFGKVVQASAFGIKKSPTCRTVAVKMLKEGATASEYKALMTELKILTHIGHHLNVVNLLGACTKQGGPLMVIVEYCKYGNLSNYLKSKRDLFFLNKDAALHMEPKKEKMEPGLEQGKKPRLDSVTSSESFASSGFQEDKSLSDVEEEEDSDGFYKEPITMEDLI

HA-tagged SMYD3 = target: T3, HA-tagged SMYD3 (human, UniProt Q9H7B4 1-428); assay: co-immunoprecipitation (IP anti-HA, immunoblot anti-Flag), HEK293 cells
T3 construct: also called ZNFN3A1; not shown: HA tag
T3 sequence: B2 chain
Experimental: Extraction of protein, IP, and Western blot analysis were performed according to methods described in the literature (Hamamoto R et al., S Nature cell biology 2004, 6(8): 731-40). Immunoblot analysis was carried out with anti-SMYD3 (Abcam, Cambridge, Mass.), anti-HA (Sigma, St Louis, Mo.), anti-Flag (Sigma), anti-GST (B D Pharmingen, San Diego, Calif.), anti-beta-actin (Sigma), or anti-phospho-Tyrosine (PY20; Sigma) antibodies. HRP-conjugated second antibody was used for the ECL Detection System (Amersham Biosciences, Piscataway, N.J.). Recombinant histone H3 and VEGFR1 (3108) were purchased from Upstate Biotechnology (Lake Placid, N.Y.) and Calbiochem (San Diego, Calif.), respectively.
Since VEGFR1 was methylated by SMYD3, the inventors investigated whether SMYD3 interacts with VEGFR1. The present inventors expressed Flag-tagged cytoplasmic regions of VEGFR1 together with HA-tagged SMYD3 in HEK293 cells. Immunoprecipitation with anti-HA antibody, and subsequent immunoblot analysis with anti-Flag antibody disclosed that SMYD3 associates with VEGFR1#1 (codons 800-1000) but not VEGFR1#2 or VEGFR1#3 (FIG. 3a). Consistently, IP with anti-Flag antibody and subsequent immunoblot analysis with anti-HA antibody corroborated the interaction between SMYD3 and VEGFR1#1 (FIG. 3a). […]

Binder	binding result (HA-tagged SMYD3)	also measured
B1	–	binding result (HA-tagged VEGFR1): no binding
B2	–	in vitro MTase assay, methylation compared to recombinant histone H3 [1]: Approximately three-fold higher methylation of VEGFR1#1 was detected as compared to recombinant histone H3 in vitro (data not shown)
B3	no binding	–
B4	no binding	–
